# B1: B. infantis sialidase: sialidase derived from Bifidobacterium longum subspecies infantis, SEQ ID NO: 5 (protein, listed as Bifidobacterium longum)
# chain: MTENGMMNTNNTVCGANHDGAMSLAAPGDYGVACYRIPALAEAPNGWILAAFDARPHNCQDAPQANSIVQRISKDGGRSFEPQHVVAAGHDGVDKYGYSDPSYVVDRQTGEVFLFFVKSYDAGFGTSQAGVDPSAREVLQAAVTSSIDNGVTWSEPRIITADITNSESWISRFASSGAGIQLTYGEHAGRLIQQYTIKELDGRYRAVSVFSDDHGATWHAGTPVGDHMDENKVVELSDGRVMLNSRSSDGNGCRYVAISRDGGATYGPVIRETQLPDPENNAQIARAFPDAPEGSAQAKVLLYSSSSPSDRIDGLVRVSIDDGKTWSAGRRFTTGPMAYSVIAALSHKAGGGYGLLYEGDNNNIMYTRISLDWLNGQLNVDGIGGFPLSGEGGC
# B2: BIKE-EGFR-Sia: anti-EGFR BiKE-sialidase fusion, TAL4S format, SEQ ID NO: 28 (protein)
# chain: QVQLQESGPGLVKPSETLSLTCTVSGGSVSSGSYYWSWIRQPPGKGLEWIGYIYYSGSTNYNPSLKSRVTISVDTSKNQFSLKLSSVTAADTAVYYCARNPISIPAFDIWGQGTMVTVSSGGGGSGGGGSGGGGSQPVLTQPPSVSVAPGKTARITCGGNNIGSKSVHWYQQKPGQAPVLVIYYDSDRPSGIPERFSGSNSGNTATLTISRVEAGDEADYYCQVWDTSSDHVLFGGGTKLTVLGGGGSQVQLVQSGAEVKKPGESLKVSCKASGYTFTSYYMHWVRQAPGQGLEWMGIINPSGGSTSYAQKFQGRVTMTRDTSTSTVYMELSSLRSEDTAVYYCARGSAYYYDFADYWGQGTLVTVSSGGGGSGGGGSGGGGSSYVLTQPSSVSVAPGQTATISCGGHNIGSKNVHWYQQRPGQSPVLVIYQDNKRPSGIPERFSGSNSGNTATLTISGTQAMDEADYYCQVWDNYSVLFGGGTKLTVLGGGGSGGGGSGGGGSGGGGSMTENGMMNTNNTVCGANHDGAMSLAAPGDYGVACYRIPALAEAPNGWILAAFDARPHNCQDAPQANSIVQRISKDGGRSFEPQHVVAAGHDGVDKYGYSDPSYVVDRQTGEVFLFFVKSYDAGFGTSQAGVDPSAREVLQAAVTSSIDNGVTWSEPRIITADITNSESWISRFASSGAGIQLTYGEHAGRLIQQYTIKELDGRYRAVSVFSDDHGATWHAGTPVGDHMDENKVVELSDGRVMLNSRSSDGNGCRYVAISRDGGATYGPVIRETQLPDPENNAQIARAFPDAPEGSAQAKVLLYSSSSPSDRIDGLVRVSIDDGKTWSAGRRFTTGPMAYSVIAALSHKAGGGYGLLYEGDNNNIMYTRISLDWLNGQLNVDGIGGFPLSGEGGC
# Key:
# [1] = tested on: HER2 positive SK-BR-3 human breast cancer cells; assay: BiTE-induced T cell cytotoxicity by LDH release, SK-BR-3 target cells; assay type: cell-based
# Method: To evaluate whether desialylation may enhance the susceptibility of tumor cells to BiTE-mediated cytotoxicity by T cells, we first constructed a BiTE molecule from a HER2-targeting scFv 4D5 and a human CD3-targeting scFv (4D5 BiTE). We then treated HER2 positive SK-BR-3 human breast cancer cells with a sialidase derived from Bifidobacterium longum subspecies infantis (B. infantis) to remove cell surface sialic acids. Following this procedure, treated cells were incubated with PBMCs from healthy human donors in the presence of 4D5 BiTE. Staining with FITC-Sambucus nigra agglutinin (SNA) that binds preferentially to sialic acid attached to terminal galactose in an a-2,6 linkage confirmed the success of cell surface desialylation. […] A similar trend was observed when 4D5 BiTE treatment was combined with a sialylation inhibitor, P-3Fax-Neu5Ac (FIG. 1, b). Next, we treated SK-BR-3 and MCF-7 breast cancer cells with 4D5 BiTE and hPBMCs in the presence or absence of B. infantis sialidase, respectively. […] The cytotoxicity enhancement is also observed with a different E: T ratio of 1:1 and the improvement of the BiTE-induced killing was sialidase dose-dependent.
# (§1) Cell cytotoxicity measurement by lactate dehydrogenase (LDH) release: T cell cytotoxicity induced by BiTEs and BiTE-sialidase fusion proteins was measured by lactate dehydrogenase (LDH) release using CytoTox 96® Non-Radioactive Cytotoxicity Assay (Promega, G1780). tumor cells and hPBMCs (tumor cell:hPBMC=1:5) per well in […] media were exposed to different treatments and incubated in 96 well plates at 37° C. (unless different ratio was specified elsewhere). After 24 hours of coincubation, […] of media supernatant from each well was transferred to a new flat bottom 96 well plate and LDH release was measured using the supplier's protocol.
# T cells [2] = assay: T cell cytokine release (IFN-γ, IL-2, TNFα) by ELISA; assay type: cell-based, human; conditions: MCF7 cells incubated with hPBMCs and BiTE
# Method: (§2) Cytokine release and T cell surface activation marker measurement: For T cell cytokine release measurement, as with the cytotoxicity experiment, tumor cells and hPBMCs (tumor cell:hPBMC=1:5) were co-incubated per well in 96 well plates with different treatments in […] media at 37° C. for 24 hours. Then, […] of supernatant from each well was diluted in […] DPBS and used for IFN-γ, IL-2 and TNFα measurement. The ELISA measurement was done by ELISA MAX™ Sets. IFN-γ, IL-2 and TNFα kits (BioLegend) and the experiments were done according to the manufacturer's protocol. The exact concentration was calculated from a standard curve. For the cell surface activation marker measurement, tumor cells and hPBMCs (tumor cell:hPBMC=1:5) were co-incubated per well in 12 well plates with different treatments in 1 mL media at 37° C. for 24 hours. […] Cells were then washed twice with FACS buffer (PBS with 2.5% BSA) before being analyzed using flow cytometry. Data analysis and mean fluorescence intensity calculation were done by Flowjo. For the transcriptome analysis, 1.2 million hPBMCs and 0.1 million MDA-MB-231 cells were incubated together under the treatment of either 4 nM 4D5 BiTE or 4 nM 4D5 BiTE-sialidase (Three replicas for each condition). […]
# [3] = tested on: immune synapse between T cells and tumor cells; assay: BiTE-induced immune synapse formation, confocal imaging of CD3 and actin; assay type: cell-based, human
# Excerpt: Formation of the BiTE-induced immunological synapse (IS) between target cells and T cells is the essential mode of action of BiTEs. We hypothesized that the removal of cell-surface sialosides may promote stronger BiTE-induced IS formation between target tumor cells and T cells and thus better tumor cell killing. Accumulation of the TCR-CD3 complex and F-actin at the synapse is a hallmark of a stable and functional cytolytic IS in T cells. To test whether desialylation can promote IS formation, we imaged the IS formed between T cells and sialidase-treated and non-treated SK-BR-3 cells by staining F-actin and CD3. The resulting immunofluorescence was imaged by confocal microscopy. […] To assess the stability of the IS formed, we calculated the relative CD3 fluorescence intensity at the IS and the relative area of the IS.
# Staining of human […] and actin for confocal imaging: Briefly, 0.4 million tumors cells were treated with 4 nM 4D5 BiTE or 4 nM 4D5 BiTE with 15 mg/ML sialidase in […] DMEM without the serum for 1 hr at 37° C. After the incubation, all the samples were washed twice using PBS before incubating with 0.4 million hPBMCs in 500 ml PBS for 30 min at 37° C. Then all the cells were transferred in 1 ml PBS to the coverslips in 12 well plates and incubated at 37° C. for 30 min to let cells attach to the coverslip. 1 ml 4% PFA was added to each well and incubated with shaking for 20 min at room temperature (RT) for cell fixing, and then each well was washed twice with ice cold PBS. […] PBST was used for washing for three times before anti-rabbit 488 (Invitrogen, 35553) and anti-mouse 594 ((Invitrogen, A-11005) secondary antibody was diluted and used for staining at RT for 30 min with shaking. Finally, samples were washed three times and each coverslip was transferred to a glass slide with mounting oil. Fingernail oil was used to seal the coverslip. Samples were analyzed on a Zeiss LSM880 with a 63× oil lens (NA 1.4). The relative mean fluorescent intensity (MFI) of […] accumulation and relative contact area of IS was calculated by imageJ.
# T cells [4] = assay: T cell surface activation markers (CD25, CD69, CD107a) by flow cytometry; assay type: cell-based, human; conditions: with 4D5 BiTEs
# Method: as §2
# PSMA-positive PC3 cells = assay: PSMA BiTE-induced T cell cytotoxicity, PC3 target cells; assay type: cell-based, human; conditions: sialidase and PSMA BiTEs added at the same time
# Method: (§3) To evaluate whether desialylation may enhance the susceptibility of tumor cells to BiTE-mediated cytotoxicity by T cells, we first constructed a BiTE molecule from a HER2-targeting scFv 4D5 and a human CD3-targeting scFv (4D5 BiTE). We then treated HER2 positive SK-BR-3 human breast cancer cells with a sialidase derived from Bifidobacterium longum subspecies infantis (B. infantis) to remove cell surface sialic acids. Following this procedure, treated cells were incubated with PBMCs from healthy human donors in the presence of 4D5 BiTE. Staining with FITC-Sambucus nigra agglutinin (SNA) that binds preferentially to sialic acid attached to terminal galactose in an a-2,6 linkage confirmed the success of cell surface desialylation. […]
# as §1, with “(unless different ratio was specified elsewhere).” left out
# [5] = tested on: MCF-7 breast cancer cells; assay: BiTE-induced T cell cytotoxicity, MCF-7 target cells; assay type: cell-based, human
# Method: as §3
# as §1, with “(unless different ratio was specified elsewhere).” left out
# [6] = tested on: CD19+ (Daudi) and EGFR+ (A549) cells; assay: BiKE-sialidase desialylation selectivity in co-culture; assay type: cell-based, human; conditions: 10 nM, 1h, serum-free medium, SNA or MALII staining
# Method: We compared the desialylation activity and selectivity of BiKE-CD19-Sia and BIKE-EGFR-Sia in a co-culture assay comprising CD19+ (Daudi) and EGFR+ (A549) cells, respectively. 1:1 ratio of daudi cells and A549 cells were treated with PBS, 10 nM BiKE-CD19-Sia or 10 nM BiKE-EGFR-Sia for 1h in serum-free medium, followed by staining with SNA-biotin (targets α2,6-linker sialoglycans) or MALII-biotin (targets α2,3-linker sialoglycans) in HBSS buffer for 30 min. Next, the cell mixtures were stained by streptavidin-APC and EGFR-Pc5.5.
# [7] = sialidase-treated vs untreated SK-BR-3 cells, 4D5 BiTE
# [8] = vs 4D5 BiTEs+hPBMCs and sialidase+hPBMCs controls
molecule,measurement,setting,value
recombinant human CTLA-4: a high affinity ligand of CD80 [reference compound],desialylation-enhanced cytolysis with added CTLA-4,[1]; high concentrations of CTLA-4 added with sialidase and 4D5 BiTE,no change in the enhanced cytolysis
B1,IFN-γ secretion on addition of sialidase,T cells [2],significantly enhanced
same,BiTE-induced immune synapse formation,"[3]; SKOV-3 cells and T cells, with sialidase treatment",better IS formed
same,CD3 accumulation at the immune synapse,[3]; [7],significantly stronger CD3 accumulation
same,relative immune synapse area,[3]; [7],larger IS area
same,T cell activation (CD25 and CD69 expression) on addition of sialidase,T cells [4],significantly enhanced
same,4D5 BiTE-induced tumor cell killing by T cells after sialidase treatment,"[1]; tumor cells pre-treated with sialidase, hPBMCs, effector:target 5:1, vs 4D5 BiTEs alone",significantly potentiated the 4D5 BiTE-induced tumor cell killing
same,killing with 4D5 BiTE and hPBMCs in presence of sialidase,[1]; [8],stronger killing
same,PSMA BiTE-induced cytotoxicity with sialidase,PSMA-positive PC3 cells,stronger cytotoxicity enhancement
same,BiTE-mediated target cell killing with sialidase treatment,[5]; purified T cells as effectors,better BiTE-mediated target cell killing
same,killing with 4D5 BiTE and hPBMCs in presence of sialidase,[5]; [8],stronger killing
B2,selective desialylation activity,[6],selective desilylation activity

# Reference: US20250354133A1, “SIALIDASE FUSION MOLECULES AND RELATED USES” (The Scripps Research Institute, priority 2022, published 2025)
